The supplement of paper PMC12042874
± gives the uncertainty stated by the source.

test: amyloid nucleation score (Sup35N fusion, yeast selection) (log enrichment); library NNK2; higher = more nucleation; inactive = no reads after selection
Procedure, shortened: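 The nucleation score is the log enrichment of output over input reads, calculated with DiMSum and centred on the mode score of non-aggregating sequences. Sequences with under 100 input reads were excluded. Reads came from Illumina sequencing of plasmid inserts from psi-negative yeast expressing Sup35N fused to peptides of 20 random codons, induced 24 hours with 100 μM copper sulfate and grown 7 days at 30°C without adenine and uracil.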

| Substance | amyloid nucleation score |
| --- | --- |
| GVAYRWPFGQK | 0.155 ± 1.1 |
| GVCNYPPCPGMMKGKTSLGN | 1.32 ± 0.26 |
| GVCSSNWVYVLLDVDDVISR | -0.564 ± 0.39 |
| GVHTLWNRMKWPIENRVYGS | 1.59 ± 0.3 |
| GVIKWKRQETLNHSWGSESE | 5.24 ± 0.072 |
| GVLFAELLIFVVKSSVVV | 2.01 ± 0.23 |
| GVLGLAFDC | 0.662 ± 0.81 |
| GVLKVLLLAPISFTVVCHSS | 3.65 ± 0.055 |
| GVLMCVAVYRFVCMKRSGML | 0.039 ± 0.19 |
| GVSHMALSSARSFMITDLRS | 3.44 ± 0.14 |
| GVTPG | 0.752 ± 0.16 |
| GVVTFV | 0.157 ± 0.76 |
| GVVTSSSRYLY | 0.072 ± 1.1 |
| GVYIRVVSHEWVLFW | inactive |
| GWNGNLSGTAHLGSSIVSSG | -0.649 ± 0.79 |
| GWSSSHVWVGLNS | 2.44 ± 0.21 |
| GYASTSKAKISAIRAIRP | 0.339 ± 0.31 |
| GYAWPRGTSGVA | 0.353 ± 0.4 |
| GYCLMTFLISTCYG | 5.166 ± 0.031 |
| GYCQVKSGCCSGEECCFWMI | 3.68 ± 0.099 |
| GYDFT | inactive |
| GYGWKLQMTGGESCVGSHLR | 0.388 ± 0.66 |
| GYNKLSLSL | -0.863 ± 0.64 |
| GYNQEYRLSTMKAMLGRLLV | inactive |
| GYRSHSDNNICNVSGSHTYI | 3.96 ± 0.065 |

| Substance | amyloid nucleation score |
| --- | --- |
| GYRSIFLLFFPADHPLHTIY | -0.064 ± 1.1 |
| GYSFRYTFCSHSGDVAVVSK | -0.739 ± 1 |
| GYVFYNFFYSAQSRLSSLSN | 0.52 ± 0.15 |
| GYWTGELH | inactive |
| HACGIVHRPLLRD | -0.191 ± 0.33 |
| HASVHL | 0.497 ± 0.34 |
| HATVHSSRCHSYHPGL | 6.707 ± 0.054 |
| HCNCHRIVYLECVLPYIHCI | -0.919 ± 0.55 |
| HCYSPSKIRVNAIFLHIFL | inactive |
| HDPRIYW | 0.441 ± 0.27 |
| HDYVRLPEWFLSMGDHMYMC | -0.356 ± 1.1 |
| HEESDGPNERTILVCSICVI | 0.487 ± 0.28 |
| HEKGIKVVQGGQVYGITVEV | 0.093 ± 0.39 |
| HEMVTRQRLVTSRQYLSLGV | 1.11 ± 0.29 |
| HEPNSYHPRVGLIQELWHCG | 0.473 ± 0.45 |
| HESRGCSHKTNSMCGHLILL | -0.309 ± 0.45 |
| HEVVKFK | 0.016 ± 1.1 |
| HEYLRGRGTFGNIQDYNKLM | -0.447 ± 1.1 |
| HEYQFSYDFKFLFGSQIMYM | inactive |
| HFCYKMRLKDDCVCFKGYTI | 4.03 ± 0.058 |
| HFCYSNNRWVSGAFYVSRPT | 1.78 ± 0.2 |
| HFKFYRNNYMTVIVHKACDV | 8.665 ± 0.083 |
| HFTSRLKIRSTIVAVVNVSS | 3.16 ± 0.078 |
| HFTTLGILLRCRGLSVLPKV | -0.329 ± 0.39 |
| HFVRVSFGCCLVTLSMRVDR | 0.669 ± 0.26 |

| Substance | amyloid nucleation score |
| --- | --- |
| HGAVGCAS | -0.002 ± 1 |
| HGRKNFSVGVVVVLWLRLFV | 5.63 ± 0.081 |
| HHSWRYRLYVSIDSSFCLGA | inactive |
| HIEFDRWAPHLVDLPTGPMK | inactive |
| HIGHSWIGSALDTLAYEGYY | -0.49 ± 0.76 |
| HIKLYSDYTCKLMPSLTWQR | 4.8 ± 0.08 |
| HIPRCINLVVRCTVKLVDGS | 2.35 ± 0.14 |
| HIVAGCIVQLANILWDRAEG | 0.57 ± 0.38 |
| HIVEIGALYRAIYLKVKWRQ | 2.62 ± 0.21 |
| HKCRWSGPAVGSQGKDVIIL | 1.12 ± 0.44 |
| HKDSKTGSIYHQWMDQREIE | -1.1 ± 0.48 |
| HKHSISKCAKEALAALLLFV | -0.319 ± 0.76 |
| HKKAFVCPRCMVPCRRLWHG | 0.232 ± 0.25 |
| HLENGINIWDKLY | -0.363 ± 1.1 |
| HLGRYAVKMCYWKGLFFYNN | 0.29 ± 0.74 |
| HLMLRKGLVKCWVQTVVGSG | 1.48 ± 0.33 |
| HLTSS | 0.772 ± 0.44 |
| HLVGEKSSKRDSGGRGPRRY | -0.32 ± 0.61 |
| HLYLPMYGIMFS | 1.27 ± 0.15 |
| HMCTFSIICKKVLMSFMGIL | 1.93 ± 0.14 |
| HNIIWFSLTWLRYMSVVVIC | inactive |
| HNYSD | 0.187 ± 0.56 |
| HPFSSRSS | -0.018 ± 1.1 |
| HPSFLRIWDYIRSKFNSVHR | inactive |
| HPWSFLKVGVQFVGFWDSPY | 0.366 ± 0.19 |

| Substance | amyloid nucleation score |
| --- | --- |
| HQVSGSDWPRSDYLRCLTIA | 1.82 ± 0.19 |
| HRCSKPSWKVCIEWCRSRCV | 0.614 ± 0.45 |
| HREWG | 0.668 ± 0.46 |
| HRFSMQALYRNIQEWSCEAW | 2.07 ± 0.12 |
| HRGNTCTGSRCRLADRRHPS | 1.79 ± 0.18 |
| HRTMHRTHSICGGVDQRELL | -0.538 ± 0.48 |
| HRVCLNTIGY | -1.02 ± 0.32 |
| HRVRIINCKKIWGNALWVRL | 1.15 ± 0.14 |
| HRVWTVIMWGS | 0.699 ± 0.44 |
| HRYLPSG | 0.224 ± 0.8 |
| HSAYSWFLKSSNRRSWANSS | -0.666 ± 0.79 |
| HSCRTYI | inactive |
| HSCSYRLLSMYTRLRTLVSG | -0.828 ± 0.64 |
| HSFEFWIDTRWLVFINPYSR | -0.846 ± 0.44 |
| HSFLSGIKWLSSDLGDSVGY | -1.29 ± 0.62 |
| HSFMSRVARVSWMEMVVTLA | 1.26 ± 0.41 |
| HSGCCRYLLNNWLYSYMQFY | 4.08 ± 0.05 |
| HSSISVCVYSRLPCH | -0.447 ± 0.36 |
| HSVLMAGSPTILRHRYRFKG | -0.723 ± 0.44 |
| HTGLSVGKFKVRHGNVHRVF | -0.181 ± 0.34 |
| HTLGIWLKREPWGMMYGLRG | 0.165 ± 1 |
| HTTASATPYFAGQV | 0.042 ± 0.38 |
| HTWHLDRSLNLSMSLEPMLL | 0.233 ± 0.4 |
| HVEWMTCWLVSNNTDPRWDR | 0.911 ± 0.27 |
| HVHCEIGFVRLSTRVGRWFG | 6.64 ± 0.079 |

| Substance | amyloid nucleation score |
| --- | --- |
| HVHKL | -0.403 ± 0.39 |
| HVHVNLYRTSGDIEHMSVQL | 8.391 ± 0.046 |
| HVRYYGTHSTVNDNYIRNVR | 0.425 ± 0.31 |
| HVTRQLCPLMSFILGR | 0.565 ± 0.49 |
| HVYAVRSLLYGGWGRH | 4.46 ± 0.051 |
| HVYVGL | -0.578 ± 1.1 |
| HWCLLNSPNYIEMSLNDFLY | 3.62 ± 0.053 |
| HWGLNTWPYSDFGVTLLRGH | -0.477 ± 0.76 |
| HWRGFYS | -0.388 ± 1.1 |
| HYRGSENGVEPSFLYGVSLL | 0.079 ± 0.49 |
| HYRWMSHADIMVFHNLCRYN | inactive |
| HYRYEVDYLSELCIPDGMPM | -0.197 ± 0.24 |
| HYSFRSIAGLQAVCGDNCMD | 0.427 ± 0.52 |
| HYYPLVAIR | 0.389 ± 0.49 |
| HYYSIDEASRYKMDLNLSLL | 2.91 ± 0.099 |
| IACLNKTFLFSCVNIYGLMT | 5.736 ± 0.037 |
| IALANVGLED | -0.023 ± 0.33 |
| IANVWLLQFRKAFEGGLDAG | 7.08 ± 0.079 |
| IASISERLYCFAGPTIRCNR | 0.338 ± 0.43 |
| ICAGSGFRKGRINPELRVHW | -1.24 ± 0.75 |
| ICCWEMCLGSFFR | 0.287 ± 0.65 |
| ICEVRIFKLNMVVCSLYYMV | -1.12 ± 0.76 |
| ICGPLTRRVIDCGAYTKY | -0.19 ± 0.26 |
| ICVYSTRTDKMSCRPF | 0.856 ± 0.6 |
| IDDDIFVMCCIEKHVLVCEF | 3.26 ± 0.047 |

| Substance | amyloid nucleation score |
| --- | --- |
| IDFQVVWSIFLENSKKHSTR | 0.213 ± 0.8 |
| IDHINF | -0.524 ± 0.64 |
| IDNLFWPRLSGPDFVI | -1.7 ± 1.1 |
| IDRVVSTRSSGFVCGEAFCG | -0.365 ± 0.63 |
| IDYLDTCFAVCFVGYTVCPT | 0.111 ± 0.5 |
| IDYQSGMPWVSMRMILKQ | 0.158 ± 0.46 |
| IEDSEREMACINPGFSFVVV | -1.83 ± 1.1 |
| IEGFRNDFLYVKISVGGAVV | inactive |
| IEHIRFTSSSAVVRRCGNC | 6.11 ± 0.066 |
| IEYWRSGVMELGHVVSYRDI | 0.102 ± 0.77 |
| IFCNTLCQIGFRRNVKASGN | -0.104 ± 0.5 |
| IFFLMNPR | 2.16 ± 0.068 |
| IFGFGMFKWKTFLTLSVFV | -0.223 ± 0.76 |
| IFGSWSSIMCLTKFKCSLGG | 2.8 ± 0.081 |
| IFHRLKDLT | -1.24 ± 0.48 |
| IFHYAFC | 10.09 ± 0.061 |
| IFLEMKDHIIRATFNRLRFC | inactive |
| IFLIK | -0.249 ± 1.1 |
| IFMNPICFWSNRNFLVWSNN | 4.5 ± 0.059 |
| IFMRNRV | -0.524 ± 0.64 |
| IFNCLFDNGKDVYFGILIDF | 2.85 ± 0.081 |
| IFPLPDLGAYSC | 0.47 ± 0.65 |
| IFSIKPIYLDLNQRVNSIAE | inactive |
| IFSKVRLFFRRGMNFVMGEV | -1.64 ± 0.77 |
| IFSQGHEYKRDELKNV | inactive |

| Substance | amyloid nucleation score |
| --- | --- |
| IFSRIDTQCGMMSISQQ | -0.364 ± 0.24 |
| IFSTHVEFRWQLILGL | -0.426 ± 0.25 |
| IFVFSWRIRMWLLKSLTCG | -0.904 ± 0.78 |
| IFYIVGYFAHLMMWNTRRDG | inactive |
| IFYNIVE | -1.31 ± 0.78 |
| IFYRYFSVFNCPAICRQYRK | 6.382 ± 0.054 |
| IFYWLIHHRLMYDFFCRVLT | -0.995 ± 0.76 |
| IFYYIDCCHITARYFQREGM | 7.71 ± 0.081 |
| IGAQPRDGYN | -0.223 ± 0.49 |
| IGGGTLYWGVDWVMY | 2.96 ± 0.12 |
| IGHLPMMVLT | 1.42 ± 0.36 |
| IGLKVSSFNDKVLSGA | -0.285 ± 0.63 |
| IGLTALDFMSAFGVHLYGCG | 0.215 ± 0.76 |
| IGLVVFSAL | 2.56 ± 0.11 |
| IGRMGIQKWS | 0.698 ± 0.47 |
| IGRRLVDFWDVGPFCSHVII | -1.48 ± 1.1 |
| IGTYWYVKLWRYSYVYPYLD | 0.665 ± 0.57 |
| IGVIKGFYWHK | -0.343 ± 1.1 |
| IGVWMGCYTSLHCSIKCLEI | 6.36 ± 0.086 |
| IGWTFIHVPCSAQRFVAIVS | 0.827 ± 0.51 |
| IHESSSF | -0.47 ± 1.1 |
